Data taken from the supplement of paper PMC12636428.

Tested on: Saccharomyces cerevisiae
Assay: transcriptional activation domain activity (GFP:mCherry ratio, weighted mean of sorted bins, harmonized to initial dataset scale) (arbitrary fluorescence ratio units); higher = stronger transcriptional activation
Settings: beta-estradiol 1 µM; induction time 4 h
In short: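 Each value is an activation activity: the read-weighted mean of bin median fluorescence, averaged across barcodes, then mapped linearly to the initial dataset scale. The tiles, fused to an estradiol-inducible synthetic transcription factor, sat at the yeast URA3 locus in GFP-reporter diploids. Cells spent 4 hours at 30 °C in SC with 1 uM beta-estradiol before sorting into 8 GFP:mCherry bins, and tiles below 50 reads were removed.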

Q: For “ETKGASGEGGKSTSESGSASSSSSKGEGKAAGEQGSSGSSSGSSSESGSKEKT”, which “transcriptional activation domain activity” value is on record?
A: 30100

Q: Which “transcriptional activation domain activity” value does the source give for “ETPAAEPVKETETAAEAAPAEAAAEATPEEAKEEKKEEKKEEKVKGSKVGRRL” here?
A: 32500

Q: How did the “transcriptional activation domain activity” value turn out when “ETSDEAKSEDSSSDEGDDSSSSEDDGRKRSRKKSVIKMRKTKAKKTKKKGKKS” was run?
A: 39300

Q: With “ETVEEPAPKRGKATRTKAAEPAPVEEAPKPAAKPRGRAAAKKATEPAAEAEVE” as the sequence, how does the “transcriptional activation domain activity” value read?
A: 35500

Q: “ETVLKDLKSNQNIDTTVQKLFANCLFYARRIALIHPNLTSIKALLLLMVALEC” was tested. Which “transcriptional activation domain activity” value did it give?
A: 81600

Q: For “ETVQKYDGYRPDILSIWNNEFYPIGKYNDDMTGFKFQMRIKEMQEFLDMEKYS”, which “transcriptional activation domain activity” value is on record?
A: 68500

Q: Which “transcriptional activation domain activity” value does the source give for “ETYLFLQDQDESADSHHHDELGSEITLADNKFSYLPPTLEELMEEQDCNNGRS” here?
A: 84700

Q: “EVAANHRTILDHTMSLVSAVHIACLRFMTVAWAQAYRRYIVAWIRDLQVLHPH” was tested. Which “transcriptional activation domain activity” value did it give?
A: 70400

Q: How did the “transcriptional activation domain activity” value turn out when “EVAEEAAAAAAPEKKTRRGASKKAAAEKAAAAEEEGEKAAQKAEKAAEKAAEK” was run?
A: 33200

Q: Which “transcriptional activation domain activity” value does the source give for “EVDAEAAEKPVKRLTRKARGVTEENQTSDAQSSRPAPVRRGRKPASVASTTAP” here?
A: 54700

Q: Which “transcriptional activation domain activity” value does the source give for “EVDEAAVKMVKRARRERRAAEKEASGEAEHAAGVEKKPKRRSSRKKKEEGEGG” here?
A: 31400

Q: With “EVDMTPADALDDFDLEMLGDVESPSPGMTHDPVSYGALDVDDFEFEQMFTDAL” as the sequence, how does the “transcriptional activation domain activity” value read?
A: 112000

Q: For “EVEAAIAAAAAEVEKVEVKAKAKAEAAAAAAAAAEAAAAAEARAAAAAAAQAA”, which “transcriptional activation domain activity” value is on record?
A: 30700

Q: “EVEGEGEDGEEEAAPPPKKVRASGRSKKIEYKEESEEEAPAPKKTRGKKAATK” was tested. Which “transcriptional activation domain activity” value did it give?
A: 6720

Q: For “EVETRYTLAIELFQPILKVLVDFESDDLKFGFLVAWLVGLYRRLWELCVFKYI”, which “transcriptional activation domain activity” value is on record?
A: 58900

Q: For “EVGADGGAAADEEEEEESDEEGEDGGRKRKKPKVAAEKPERKASAAPADGEKK”, which “transcriptional activation domain activity” value is on record?
A: < 6570

Q: “EVGAKTFLAGLAGSGGSGGVYRCVIDKSRPAVWRLRKNDAPLSSFAAALLVSN” was tested. Which “transcriptional activation domain activity” value did it give?
A: 72500

Q: How did the “transcriptional activation domain activity” value turn out when “EVHLHIRKVYRHYDDLEHLGRRKFNFLTLVIRHLLDIVGIDSPWALFSRKPQQ” was run?
A: 63000

Q: “EVIAGQQYAGLSFFAFVLRQDDIKSLDLILAEYFKVPTALDIIRSSLYLAIYS” was tested. Which “transcriptional activation domain activity” value did it give?
A: 48600

Q: “EVKAESKPESKVEPKTEAKPEPKAEPKSEPKVEPKKSESSKKNKKKKAKKAAA” was tested. Which “transcriptional activation domain activity” value did it give?
A: 33700

Q: “EVKDKVWFLEGVTQVLPQDVDEYSGGGGMHMMLDFLGGGLPSMTTTNFSDFSL” was tested. Which “transcriptional activation domain activity” value did it give?
A: 113000

Q: With “EVKETKEGESQSPAKQEVVQEETVKPSPPQPPQQTKQQKKKKLVLTSGGGGRG” as the sequence, how does the “transcriptional activation domain activity” value read?
A: < 6570

Q: With “EVKLEEAEATGASVKRKSRKSKIETDIADGADNEATPSGSRRRGRPRKSQPDP” as the sequence, how does the “transcriptional activation domain activity” value read?
A: 59400

Q: “EVLHLFIHFSFIFALYMLCFFLPAKHLCNLLTWYKYLFFLLSIMLFFLILIGT” was tested. Which “transcriptional activation domain activity” value did it give?
A: 64200

Q: For “EVLITKKPAKQTRGKKAPTAAVNKAEIEEGQDDVNFANVGRGRKRAVAKKVVE”, which “transcriptional activation domain activity” value is on record?
A: 25700

Q: With “EVLLLLMWMFWTKVVKIIPHFLRHPSDFPLVICQILFGYAHSFIKLWALVTFW” as the sequence, how does the “transcriptional activation domain activity” value read?
A: 47200

Q: For “EVMKIHPVQKQTRAGQRTRFKAYVVVGDSNGHVGLGVKCSKEVATAIRSAIIL”, which “transcriptional activation domain activity” value is on record?
A: 38700

Q: Which “transcriptional activation domain activity” value does the source give for “EVMKIMPVQKQTRAGQRTRFKAFVVIGDSDGHVGLGVKCAKEVATAIRGAIIL” here?
A: 55300

Q: Which “transcriptional activation domain activity” value does the source give for “EVMKIMPVQKQTRAGQRTRFKAFVVIGDSEGHVGLGVKCAKEVATAIRGAIIL” here?
A: 56900

Q: For “EVMKITPVQKQTRAGQRTRFKAFVAIGDSNGHVGLGVKCAKEVASAIRGAIIL”, which “transcriptional activation domain activity” value is on record?
A: 61100

Q: How did the “transcriptional activation domain activity” value turn out when “EVMKVTPVQKQTRAGQRTRFKAFVAIGDYDGHVGLGVKCAKEVASAIRGAIIL” was run?
A: 48700

Q: Which “transcriptional activation domain activity” value does the source give for “EVNYLYGLILLQFYTGFIHDIIFGSGHLPFLPLMITSIYCSLGVVYGWGYFML” here?
A: 51000

Q: For “EVRELHLIDRTLDELRTVQLTLTMLHLICAPKPVFHLLRSVVLQCAEPKGLLT”, which “transcriptional activation domain activity” value is on record?
A: 46300

Q: Which “transcriptional activation domain activity” value does the source give for “EVSEESGDSGDDEGRKEKKKRKRVKEEEVEDEGERKKKKSKKSKDEKSAEKAD” here?
A: 47600

Q: Which “transcriptional activation domain activity” value does the source give for “EVSFVALLLVWTYMRHYLNCKILYSVWTEFDLIPHHFRSWVHEPGYPHDIRGW” here?
A: 45000

Q: “EVSIDGVQTVTYCGRDALPEHDKVTEVGWVLDRGILKLGVLYLWLNCRHMCVT” was tested. Which “transcriptional activation domain activity” value did it give?
A: 65400

Q: “EVTEAEANGETPNAEGVTPAEGEQKPKKKRKSNRKKKAAATPAEGEAAKEAPA” was tested. Which “transcriptional activation domain activity” value did it give?
A: 34500

Q: With “EVVLLPDLCGFCCFSMRFVVLLDLIGTLTLPVTACYLVYLIYVIASGNGPFPL” as the sequence, how does the “transcriptional activation domain activity” value read?
A: 46800

Q: Which “transcriptional activation domain activity” value does the source give for “EVYFGLVNRRFRELLLVHERCFDLKVPNYRLMSILLAYLLRHTMVTPKVKYPE” here?
A: 29700

Q: With “EVYLLRFEQCLTRAMTLIRMFFVGSLRALTQDVSRRLAEKDVSQTAQTHLLYT” as the sequence, how does the “transcriptional activation domain activity” value read?
A: 46300

Q: With “EWAPDVLRKSAKTFTQEGPMVKLQIVTLAAKLLVLSPVDPRLTLLCRYVFSLA” as the sequence, how does the “transcriptional activation domain activity” value read?
A: 46000

Q: How did the “transcriptional activation domain activity” value turn out when “EWFVMFCMMLLLLFWFFPISALASLLSYEEIKKIMPWLGRLIDANENIRAIVQ” was run?
A: 62900

Q: How did the “transcriptional activation domain activity” value turn out when “EWMKVVYGFDQKPIPSGACSGSIAKIFGTNTSAFELLVLKRRIMGPCWIQIKK” was run?
A: 55800

Q: With “EWNRSVNSTYPLLYRGVDFLQKSLSWLKILRLSYLHPLQFFGCFGFGLLVVHI” as the sequence, how does the “transcriptional activation domain activity” value read?
A: 60200

Q: Which “transcriptional activation domain activity” value does the source give for “EWTRLVQNPAASPRLLNGFIRQMLADLPTTSILVLVRTALEVSVESYAQAGST” here?
A: 58700

Q: With “EWVIGWCKQIGLPDGVTEFIGRSYIMTAEAYLDLPMSKQVLVPVVAINTLVFV” as the sequence, how does the “transcriptional activation domain activity” value read?
A: 34200

Q: For “EYAEWLLQPEQNNGTWVADVLWPAIDLDLEWIALNWNQSSWDLWWPPVWAGSF”, which “transcriptional activation domain activity” value is on record?
A: 107000

Q: For “EYAPKTPVVAAAVPKEEKKEEKAEEVKEAKEEENKEIKDEKKDTRKSRSASRK”, which “transcriptional activation domain activity” value is on record?
A: < 6570

Q: How did the “transcriptional activation domain activity” value turn out when “EYDEDAARRIAERVHARAIGLTCGAAPPQVGGRSCASAVWSPIRVAVSTVCIQ” was run?
A: 44700

Q: “EYFYYKMLAPSAATVFYVYVGLIKMSIALFNIRLTTLTTKLWGNVNWAFFVIC” was tested. Which “transcriptional activation domain activity” value did it give?
A: 63000

Q: For “EYLDKLLAEFEEFDYSINRVLPDVIDFSALIGQDSSANNQIFSSEFSSDPTVN”, which “transcriptional activation domain activity” value is on record?
A: 139000

Q: With “EYMGKETGSHHLGREGEEKTYAVRRDYESRNRVALTPERNAVEIVRVRTQAAP” as the sequence, how does the “transcriptional activation domain activity” value read?
A: 19700

Q: How did the “transcriptional activation domain activity” value turn out when “EYVRETTPEKEGGGRRRQKREDVTSGEEDAPDAVEKGKKRKRSAAGGAGAGKK” was run?
A: 48300

Q: With “EYVSLCRTFATREMLKVAIFANIFSKMTRTLACLFVTRISSHVNRLRALLQPI” as the sequence, how does the “transcriptional activation domain activity” value read?
A: 61700

Q: For “FAALRRGLLLIMLFALWDVRLLSELSFTNFVFPPAMFRVIAAQSPSLRAVKVS”, which “transcriptional activation domain activity” value is on record?
A: 45300

Q: For “FAELRRARAGCFFFFFFLFFPFFSFFYFFLLFLFLFLPPFPFLSFPFFSLCVL”, which “transcriptional activation domain activity” value is on record?
A: 56100

Q: For “FAEQGWQVVYYSWQWSLGVYIHYYLPSSVWAGYPHISLPVVIKVYYLMQISLY”, which “transcriptional activation domain activity” value is on record?
A: 37900

Q: Which “transcriptional activation domain activity” value does the source give for “FAFLAPFFCFLFYMSMGFFRLFLFCFLGFGTFVVFNLILVPAFSLYLNHVYLL” here?
A: 68100

Q: Which “transcriptional activation domain activity” value does the source give for “FAGAFKHFQRLGPVSQWDLLAKLPLIVFWILFTCCSLHFYLLFLFLFFIRWVS” here?
A: 55200

Q: With “FAGIYSLVHFRKVWSSDHFILRKFMFMIEDLYQLYNLFFSWVAMGNFYLIFYI” as the sequence, how does the “transcriptional activation domain activity” value read?
A: 67800

Q: How did the “transcriptional activation domain activity” value turn out when “FAGLSYFVYDLHTMLSSIVIICVIVADFLYFGSILLPALWLECPYRVPLLFRP” was run?
A: 71900

Q: For “FAHIQPGLNVPIRAIMLCYLFNVAFGLLYLGPSVAFGAYISSCTILLNVSYAF”, which “transcriptional activation domain activity” value is on record?
A: 57100

Q: “FALFPEDPIILTIFGFFFSIPCFYYIVAKPQYISASRFVLLTYNLTCLYCYNL” was tested. Which “transcriptional activation domain activity” value did it give?
A: 32600

Q: How did the “transcriptional activation domain activity” value turn out when “FALMLREPAIQDVMSLLITTMSKFMDWFDFLDLIVTYPEFPDPKWLTTLFLIL” was run?
A: 23900

Q: Which “transcriptional activation domain activity” value does the source give for “FALTFFWSLIGYWVPFFEAIHLFWWIGYRANYVPLMSADVAWRWFFKWDFPFF” here?
A: 62000

Q: “FANWLGLQKNGMGMRLFPFFIFSLFFLSFFSLFWGFSFFFSFSFFFGFSFFWF” was tested. Which “transcriptional activation domain activity” value did it give?
A: 23100

Q: “FAQRKSPFTQLLAFFLTRGCVIAGYQIILLIVPLLAGVSYTWVPLLFCLSRVY” was tested. Which “transcriptional activation domain activity” value did it give?
A: 62100

Q: Which “transcriptional activation domain activity” value does the source give for “FARVLLNGWFRTFHKVVSTAECVAWLVLFLPYAIGVLLVVRCVLGFHDIPKPK” here?
A: 45500

Q: How did the “transcriptional activation domain activity” value turn out when “FATFYVARDVFHVTPNELHSIMYLHISSAPHFVIFSTRVPGFWWENMPHWLFF” was run?
A: 51500

Q: “FCFFLFLLSFSSCYFFFLLLFLPLTFSSLLFLPIYFFSSSSSSFFLPFLFVSL” was tested. Which “transcriptional activation domain activity” value did it give?
A: 43000

Q: Which “transcriptional activation domain activity” value does the source give for “FCFYPFQKQWVMFSLTKDSLQLAHKFNFTRVPLPQRLRAVYLYARFAWRIFLL” here?
A: 33000

Q: For “FCHIALFPSIGLKDTNYIPRAMDGVRFAHLESLHLQFNMYWLGPMYAWALHIL”, which “transcriptional activation domain activity” value is on record?
A: 52500

Q: For “FCMLNHWYARSWGTYLWLGLLLTDLDVTYKYKKWLYAHPGTYYPLLTFAWLCV”, which “transcriptional activation domain activity” value is on record?
A: 63000

Q: With “FCQISGFSLAVGIESSDIAVLLIALHSVMYIFSPLSGLYPYRQLAYLVYYLFP” as the sequence, how does the “transcriptional activation domain activity” value read?
A: 49400
